Data taken from article PMC6363164 (2019).

Molecular target: Rab7-RILP complex (human, UniProt P51149 2-195; Q96NA2 242-320)
Experiment: ITC

Sequence of Rab7-RILP complex (P51149 2-195 Q67L, chain 1 of 2): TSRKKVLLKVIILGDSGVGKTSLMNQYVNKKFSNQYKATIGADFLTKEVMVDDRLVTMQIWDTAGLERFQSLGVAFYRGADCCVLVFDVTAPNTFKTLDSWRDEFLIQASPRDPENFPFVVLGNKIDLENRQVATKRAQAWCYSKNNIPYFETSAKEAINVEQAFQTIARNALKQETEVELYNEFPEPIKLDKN
Sequence of Rab7-RILP complex (Q96NA2 242-320, chain 2 of 2): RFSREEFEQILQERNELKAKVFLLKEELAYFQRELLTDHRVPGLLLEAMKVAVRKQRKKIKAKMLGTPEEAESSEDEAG

B1: ORP1 ANK (5-233) (protein)
chain: AEQQLLHHARNGNAEEVRQLLETMARNEVIADINCKGRSKSNLGWTPLHLACYFGHRQVVQDLLKAGAEVNVLNDMGDTPLHRAAFTGRKELVMLLLEYNADTTIVNGSGQTAKEVTHAEEIRSMLEAVERTQQRKLEELLLAAAREGKTTELTALLNRPNPPDVNCSDQLGNTPLHCAAYRAHKQCALKLLRSGADPNLKNKNDQKPLDLAQGAEMKHILVGNKVIYK
Kd: 4.13 µM
